Data taken from patent EP4725969A1 (Latticon (Suzhou) Biopharmaceuticals Co., Ltd., dated 2024).

How the values were obtained:
[1] = target: T1, recombinant human HER2 extracellular domain protein (human, UniProt P04626 23-652); test: BLI, Protein A capture
T1 construct: range 23-652; Range is printed for the immunogen/panning protein; also called ErbB2; recombinant HER2 protein

[2] = target: T1, recombinant human HER2 extracellular …; test: BLI, Protein A capture; remark: listed apart in the source
[3] = target: T1, recombinant human HER2 extracellular …; test: BLI, Protein A capture; remark: listed apart in the source
[4] = target: T2, recombinant human EGFR extracellular domain (human, UniProt P00533 25-645); test: ELISA, coated EGFR ECD
T2 construct: extracellular domain

[5] = target: T3, recombinant human HER3 extracellular domain (human, UniProt P21860 20-643); test: ELISA, coated HER3 ECD
T3 construct: extracellular domain

[6] = target: T4, recombinant human HER4 extracellular domain (human, UniProt Q15303 26-651); test: ELISA, coated HER4 ECD
T4 construct: extracellular domain
T4 sequence (looked up): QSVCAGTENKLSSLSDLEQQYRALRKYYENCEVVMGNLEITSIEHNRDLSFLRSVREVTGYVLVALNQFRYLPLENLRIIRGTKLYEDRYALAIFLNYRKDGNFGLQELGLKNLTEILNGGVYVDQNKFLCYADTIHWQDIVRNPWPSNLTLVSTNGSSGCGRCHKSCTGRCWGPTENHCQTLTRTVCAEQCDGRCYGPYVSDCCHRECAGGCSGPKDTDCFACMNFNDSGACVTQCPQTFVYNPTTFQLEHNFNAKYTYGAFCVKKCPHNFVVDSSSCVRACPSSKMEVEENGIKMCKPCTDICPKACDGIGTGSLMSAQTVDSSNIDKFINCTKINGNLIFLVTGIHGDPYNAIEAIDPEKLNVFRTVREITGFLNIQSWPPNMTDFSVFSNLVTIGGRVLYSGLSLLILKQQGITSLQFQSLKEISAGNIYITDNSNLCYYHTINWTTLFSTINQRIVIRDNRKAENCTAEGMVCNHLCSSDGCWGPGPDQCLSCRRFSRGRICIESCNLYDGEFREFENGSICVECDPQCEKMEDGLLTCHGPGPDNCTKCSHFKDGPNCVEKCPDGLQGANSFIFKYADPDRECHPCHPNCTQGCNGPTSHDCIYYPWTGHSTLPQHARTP

[7] = target: T1, recombinant human HER2 extracellular …; test: BLI, Protein A capture; remark: listed apart in the source
[8] = target: T1, recombinant human HER2 extracellular …; test: BLI (ForteBio)
[9] = target: T1, recombinant human HER2 extracellular …; test: BLI, Protein A capture; remark: listed apart in the source
[10] = target: T5, human HER2 expressed on tumor cells (human, UniProt P04626 23-1255); test: flow cytometry, BT474 cells
T5 construct: whole, on cells; Cell line is named in each row's assay

[11] = target: T5, human HER2 expressed on tumor cells; test: flow cytometry, RT-112 cells

B1: Hu2126-H1K1 (antibody, human IgG1, V domains shown)
VH: QVQLQESGPGLVKPSETLSLTCTASGYTFTDYSMHWVRQPPGKGLEWMGWINTETGEPTYADDFKGRFTFSLDTSKNQASLKLSSVTAADTAVYFCVRVGRYDYAMDYWGQGTTVTVSS
VL: DIQMTQSPSSLSASVGDRVTITCKASQDVYTAVAWYQQKPGKAPKLLINSASYRYTGVPSRFSGSGSGTDFTLTISSLQPEDFATYYCQQHYSTPPTFGGGTKVEIK
Kd [1]: 19.1 nM
koff [1]: 0.0018 s⁻¹
kon [1]: 94500 M⁻¹ s⁻¹

B2: Hu2126-H2K1 (antibody, human IgG1, V domains shown)
VH: QVQLVQSGSELKKPGASVKVSCKASGYTFTDYSMHWVRQAPGQGLEWMGWINTETGEPTYADDFKGRFVFSLDTSVSTAYLQISSLKAEDTAVYFCVRVGRYDYAMDYWGQGTTVTVSS
VL: DIQMTQSPSSLSASVGDRVTITCKASQDVYTAVAWYQQKPGKAPKLLINSASYRYTGVPSRFSGSGSGTDFTLTISSLQPEDFATYYCQQHYSTPPTFGGGTKVEIK
Kd [1]: 6.89 nM
koff [1]: 0.000581 s⁻¹
kon [1]: 84300 M⁻¹ s⁻¹
Kd [2]: 4.71 nM
koff [2]: 0.000469 s⁻¹
kon [2]: 99600 M⁻¹ s⁻¹

B3: Hu2126-H2K1-L71-H72b-Mu17 (antibody, IgG1, V domains shown)
VH: QVQLVQSGSELKKPGASVKVSCKASGYTFTDYSMHWVRQAPGQGLEWMGWINTGTGEPTYADDFKGRFTISRDTSKSTAYLQISSLKAEDTAVYYCVRVGRYDYAMDYWGQGTTVTVSS
VL: DIQMTQSPSSLSASVGDRVTITCRASQDVYTAVAWYQQKPGKAPKLLINSASSRPTGVPSRFSGSGSGTDFTLTISSLQPEDFATYYCQQYYSTPPTFGGGTKVEIK
notes: IgG1/Cκ; also called 7172b-Mu17
Kd [3]: 2.8 nM
koff [3]: 0.000276 s⁻¹
kon [3]: 98500 M⁻¹ s⁻¹

B4: Hu2126-H2K1-L71-H72b-Mu18 (antibody, IgG1, V domains shown)
VH: QVQLVQSGSELKKPGASVKVSCKASGYTFTDYSMHWVRQAPGQGLEWMGWINTGTGEPTYADDFKGRFTISRDTSKSTAYLQISSLKAEDTAVYYCVRVGRYDYAMDYWGQGTTVTVSS
VL: DIQMTQSPSSLSASVGDRVTITCRASQDVYTAVAWYQQKPGKAPKLLINWASSRPTGVPSRFSGSGSGTDFTLTISSLQPEDFATYYCQQYYSTPPTFGGGTKVEIK
notes: IgG1/Cκ; also called 7172b-Mu18
Kd [3]: 7.96 nM
kon [3]: 124000 M⁻¹ s⁻¹

B5: Hu2126-H2K1-L71-H72b-Mu19 (antibody, IgG1, V domains shown)
VH: QVQLVQSGSELKKPGASVKVSCKASGYTFTDYSMHWVRQAPGQGLEWMGWINTGTGEPTYADDFKGRFTISRDTSKSTAYLQISSLKAEDTAVYYCVRVGRYDYAMDYWGQGTTVTVSS
VL: DIQMTQSPSSLSASVGDRVTITCRASQDVYTAVAWYQQKPGKAPKLLINYASSRPTGVPSRFSGSGSGTDFTLTISSLQPEDFATYYCQQYYSTPPTFGGGTKVEIK
notes: IgG1/Cκ; also called 7172b-Mu19
Kd [3]: 2.9 nM
koff [3]: 0.000314 s⁻¹
kon [3]: 108000 M⁻¹ s⁻¹

B6: mAb2117 (antibody, V domains shown)
VH: EVKIEESGGGLVKPGGSLKLSCAASGFTYSSYGMSWVRQTPEKRLEWVASISGGGSYTKYPDSVKGRFTISRDNAKNHLYLQMSSLRSEDTALYYCARDYAGFFDVWGAGTTVTVSS
VL: DVVLTQTPLSLPVSLGDQASISCRSSQSLVHSNGNTYLHWYLQKPGQSPKLLIYKVSNRFSGVPDRFSGSGSGTDFTLKISRVEAEDLGVYFCSQSTHVPYTFGGGTKLEIK
notes: also called anti-HER2 chimeric antibody mAb2117
binding result [4]: no binding
binding result [5]: no binding
binding result [6]: no binding
Kd [7]: 4.28 nM
koff [7]: 0.00166 s⁻¹
kon [7]: 388000 M⁻¹ s⁻¹

B7: Hu2117KH (Fc fusion)
scFv: DIQMTQSPSSLSASVGDRVTITCRSSQSLVHSNGNTYLHWYQQKPGKAPKLLIYKVSNRFSGVPSRFSGSGSGTDFTLTISSLQPEDFATYFCSQSTHVPYTFGQGTKVEIKGGGGSGGGGSGGGGSEVQLVESGGGLVQPGGSLRLSCAASGFTYSSYGMSWVRQAPGKGLEWVASISGGGSYTKYPDSVKGRFTISRDNSKNTLYLQMNSLRAEDTAVYYCARDYAGFFDVWGQGTLVTVSS
notes: not shown: human IgG1 Fc
Kd [8]: 147 nM
koff [8]: 0.00381 s⁻¹
kon [8]: 25900 M⁻¹ s⁻¹

B8: Mu2117HK (Fc fusion)
scFv: EVKIEESGGGLVKPGGSLKLSCAASGFTYSSYGMSWVRQTPEKRLEWVASISGGGSYTKYPDSVKGRFTISRDNAKNHLYLQMSSLRSEDTALYYCARDYAGFFDVWGAGTTVTVSSGGGGSGGGGSGGGGSDVVLTQTPLSLPVSLGDQASISCRSSQSLVHSNGNTYLHWYLQKPGQSPKLLIYKVSNRFSGVPDRFSGSGSGTDFTLKISRVEAEDLGVYFCSQSTHVPYTFGGGTKLEIK
notes: scFv-hIgG1 Fc fusion of mAb2117 V regions, VH-(G4S)3-VL; also called chimeric single-chain antibody control; not shown: human IgG1 Fc
Kd [8]: 76 nM
koff [8]: 0.00523 s⁻¹
kon [8]: 68800 M⁻¹ s⁻¹

B9: Mu2117KH (Fc fusion)
scFv: DVVLTQTPLSLPVSLGDQASISCRSSQSLVHSNGNTYLHWYLQKPGQSPKLLIYKVSNRFSGVPDRFSGSGSGTDFTLKISRVEAEDLGVYFCSQSTHVPYTFGGGTKLEIKGGGGSGGGGSGGGGSEVKIEESGGGLVKPGGSLKLSCAASGFTYSSYGMSWVRQTPEKRLEWVASISGGGSYTKYPDSVKGRFTISRDNAKNHLYLQMSSLRSEDTALYYCARDYAGFFDVWGAGTTVTVSS
notes: scFv-hIgG1 Fc fusion of mAb2117 V regions, VL-(G4S)3-VH; also called chimeric single-chain antibody control; not shown: human IgG1 Fc
Kd [8]: 77.2 nM
koff [8]: 0.00545 s⁻¹
kon [8]: 70600 M⁻¹ s⁻¹

B10: Hu2117HK (Fc fusion)
scFv: EVQLVESGGGLVQPGGSLRLSCAASGFTYSSYGMSWVRQAPGKGLEWVASISGGGSYTKYPDSVKGRFTISRDNSKNTLYLQMNSLRAEDTAVYYCARDYAGFFDVWGQGTLVTVSSGGGGSGGGGSGGGGSDIQMTQSPSSLSASVGDRVTITCRSSQSLVHSNGNTYLHWYQQKPGKAPKLLIYKVSNRFSGVPSRFSGSGSGTDFTLTISSLQPEDFATYFCSQSTHVPYTFGQGTKVEIK
notes: Hu2117-H1 + Hu2117-K1; also called hu2117-H1K1; humanized single-chain antibody Hu2117HK; not shown: human IgG1 Fc
Kd [8]: 178 nM
koff [8]: 0.00296 s⁻¹
kon [8]: 16600 M⁻¹ s⁻¹
Kd [9]: 11.4 nM
koff [9]: 0.00105 s⁻¹
kon [9]: 91700 M⁻¹ s⁻¹
EC50 [10]: 0.107 µg/mL
EC50 [11]: 0.0593 µg/mL

B11: Hu2117-HK309 (Fc fusion)
scFv: EVQLVESGGGLVQPGGSLRLSCAASGFTYSSYGMSWVRQAPGKGLEWVASISGGGNYAKYVDKVKGRFTISRDNSKNTLYLQMNSLRAEDTAVYYCARDYVGFFDVWGQGTLVTVSSGGGGSGGGGSGGGGSDIQMTQSPSSLSASVGDRVTITCRSSQSLVHSNRNTYLHWYQQKPGKAPKLLIYKVSNRFSGVPSRFSGSGSGTDFTLTISSLQPEDFATYFCSQSTHVPYTFGQGTKVEIK
notes: scFv-hIgG1 Fc; not shown: human IgG1 Fc
EC50 [10]: 0.103 µg/mL
EC50 [11]: 0.0956 µg/mL

B12: Hu2117-HK310 (Fc fusion)
scFv: EVQLVESGGGLVQPGGSLRLSCAASGFTYSSYGMSWVRQAPGKGLEWVASISGGGNYAKYVDNVKGRFTISRDNSKNTLYLQMNSLRAEDTAVYYCARDYVGFFDVWGQGTLVTVSSGGGGSGGGGSGGGGSDIQMTQSPSSLSASVGDRVTITCRSSQSLVHSNRNTYLHWYQQKPGKAPKLLIYKVSNRFSGVPSRFSGSGSGTDFTLTISSLQPEDFATYFCSQSTHVPYTFGQGTKVEIK
notes: as for B11
EC50 [10]: 0.103 µg/mL
EC50 [11]: 0.157 µg/mL

B13: Hu2117-HK203 (Fc fusion)
scFv: EVQLVESGGGLVQPGGSLRLSCAASGFTYSSYGMSWVRQAPGKGLEWVASISGGGNYAKYVDSVKGRFTISRDNSKNTLYLQMNSLRAEDTAVYYCARDYVGFFDVWGQGTLVTVSSGGGGSGGGGSGGGGSDIQMTQSPSSLSASVGDRVTITCRSSQSLVHSNRNTYLHWYQQKPGKAPKLLIYKVSNRFSGVPSRFSGSGSGTDFTLTISSLQPEDFATYFCSQSTHVPYTFGQGTKVEIK
notes: as for B11
EC50 [10]: 0.102 µg/mL
EC50 [11]: 0.144 µg/mL

B14: Hu2117-HK304 (Fc fusion)
scFv: EVQLVESGGGLVQPGGSLRLSCAASGFTYSSYGMSWVRQAPGKGLEWVASISGGGNYAKYVPSVKGRFTISRDNSKNTLYLQMNSLRAEDTAVYYCARDYVGFFDVWGQGTLVTVSSGGGGSGGGGSGGGGSDIQMTQSPSSLSASVGDRVTITCRSSQSLVHSNRNTYLHWYQQKPGKAPKLLIYKVSNRFSGVPSRFSGSGSGTDFTLTISSLQPEDFATYFCSQSTHVPYTFGQGTKVEIK
notes: as for B11
EC50 [10]: 0.0922 µg/mL
EC50 [11]: 0.0622 µg/mL

B15: Hu2117-HK303 (Fc fusion)
scFv: EVQLVESGGGLVQPGGSLRLSCAASGFTYSSYGMSWVRQAPGKGLEWVASISGGGNYAKYVESVKGRFTISRDNSKNTLYLQMNSLRAEDTAVYYCARDYVGFFDVWGQGTLVTVSSGGGGSGGGGSGGGGSDIQMTQSPSSLSASVGDRVTITCRSSQSLVHSNRNTYLHWYQQKPGKAPKLLIYKVSNRFSGVPSRFSGSGSGTDFTLTISSLQPEDFATYFCSQSTHVPYTFGQGTKVEIK
notes: as for B11
EC50 [10]: 0.101 µg/mL
EC50 [11]: 0.129 µg/mL
